Assay results taken from PMC7041945, “Misfolded proteins bind and activate death receptor 5 to trigger apoptosis during unresolved endoplasmic reticulum stress” (eLife, 2020).

Columns and labels:
[1] = system: caspase 8 in HCT116 lysates; test: Size-exclusion chromatography of cell lysates with caspase 8 activity; format: cell-based, Homo sapiens; conditions: relative to GFP; 24 hr
Description: Size-exclusion fractionation of cell lysate was performed as previously described in [Lu et al. (2014)] with minor modifications.
In a 15 cm dish, 4 million HCT116 cells were seeded 18 hr prior to transfection (see Transient transfections for protein expression). 24 hr post-transfection, cells were harvested by collecting all media (to collect detached, dying cells) and scraping the dish in 3 ml of cold PBS. The cell suspension was centrifuged at 500xg to pellet the sample. Cells were washed with an additional 1 ml of cold PBS, pelleted, and flash frozen in liquid N2 prior to lysis.
Cells were resuspended in 600 μl of lysis buffer (30 mM HEPES pH 7.2, 150 mM NaCl, 1% Triton X-100) with 1x protease inhibitor (Roche) and lysed through a 25G needle with 10 passes. […]
For the caspase 8 activity assay, 10 μl of each fraction was incubated with 10 μl of the caspase glo 8 substrate (Promega #PRG8200) in a 384-well white walled plate (Corning 3574) for 45 min at RT before measuring luminescence on a Spectramax-M5 plate reader.
For Western blots, every three fractions were pooled for a total of 1.5 ml and subjected to TCA precipitation to concentrate the protein content. Samples were then analyzed by SDS-PAGE and immunoblotted for GFP and DR5.

[2] = system: CHOP, BiP, and DR5 mRNA in HCT116 cells; test: qPCR of UPR target transcripts (CHOP, BiP, DR5); format: cell-based, Homo sapiens; conditions: HCT116, transfected 24 hr
Description: Cells were grown in 6-well plates and harvested with 0.5 ml of TRIzol reagent (Life Technologies) per manufacturer’s protocol to extract RNA. For cDNA synthesis, 500 ng of total RNA was reverse transcribed with 2 μl of the SuperScript VILO master mix (Life Technologies # 11755050) in a total reaction volume of 10 μl following the manufacturer’s protocol for reaction temperature and duration. The reverse transcription product was diluted to 200 μl with 10 mM Tris-HCl pH 8.2 and used at 1:100 dilution for subsequent RT-PCR reactions.
PCR samples were prepared as described by manufacturer’s protocols from iQ SYBR Green Supermix (BioRad #17088800).
For each experiment, qRT-PCR reactions were set up in triplicate and run using a CFX96 Real Time System (Bio-Rad). Quantitation cycles were determined with CFX Manager 3.0 software (Bio-Rad) and then normalized to GAPDH as an internal control.

B1: MPZ-GFP: myelin protein zero with a C-terminal monomeric EGFP, expressed from plasmid (protein)
chain: IVVYTDREVHGAVGSRVTLHCSFWSSEWVSDDISFTWRYQPEGGRDAISIFHYAKGQPYIDEVGTFKERIQWVGDPRWKDGSIVIHNLDYSDNGTFTCDVKNPPDIVGKTSQVTLYVFEKVPTRYGVVLGAVIGGVLGVVLLLLLLFYVVRYCWLRRQAALQRRLSAMEKGKLHKPGKDASKRGRQTPVLYAMLDHSRSTKAVSEKKAKGLGESRKDKK
modifications: left off: monomeric EGFP, C-terminal, kept
notes: myelin protein zero with a C-terminal monomeric EGFP, expressed from plasmid
- caspase 8 activity in high MW size exclusion fractions [1]: increased caspase 8 activity in high-molecular w8 (MW) fractions
- UPR target gene transcription [2]: dose-dependent upregulation of the UPR transcriptional target genes CHOP, BiP, and DR5
